Reference: the RNAGym collection of RNA variant scans (doi:10.1073/pnas.2313332121)

B1: TPR t1 (parent)
chain: GACCAAUCUGCCCUCAGAGCUCGAGAACAUCUUCGGAUGCAGAGGAGGCAGGCUUCGGUGGCGCGAUAGCGCCAACGUCCUCAACCUCCAAUGCAUCCCACCACAUGAUGAUGCCUGAAGAGCCUUGGUUUUUUG

Variants of: B1
Assay: polymerase ribozyme fitness, log enrichment relative to wild type (log ratio); higher = more active; in vitro selection for triplet polymerase activity
In short: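 Fitness compares each genotype's enrichment to that of the wild type on a logarithmic scale, averaging replicates with inverse-variance weights. The logarithm is base 2. Enrichment came from Illumina sequencing of input and output libraries after one triplicate round of in vitro selection, which included frozen incubation at −7 °C, of PCR-built, transcribed mutant libraries of each subunit of a heterodimeric triplet polymerase ribozyme. Only genotypes with ≥10 input reads and ≥1 read per output were kept.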

Question: Which “polymerase ribozyme fitness (log ratio)” value does the source give for GACCAAUCUGCCCUCAGAGCCCGAGAACAUCUUCGGAUGCAGAGGAGGCAGGCUUCGGUGGCGAGAUAGCGCCAACGUCCUCAACCUCCAAUGCAUCCGACCACAUGAUGAGGCCUGAAGAGCCUUGGUUUUUUG here?
Answer: -8.45

Question: Which “polymerase ribozyme fitness (log ratio)” value does the source give for GACCAAUCUGCCCUCAGAGCUCGAGAACAUCUUCGGAUGCAGUGAAGGCAGGCUUUGGUGGUGCGAUAGCGCCAACGUCCUCAACCUCCAAAGCAUCCCACCACAUGAUGAUGCCUGAAGAGCCUUGGUUUUUUG here?
Answer: -4.61

Question: Which “polymerase ribozyme fitness (log ratio)” value does the source give for GACCAAUCUGCCCUCAGAGCUCGAGAACAUCUUCGGAUGCAGAGGAGGCAGUCUUCGGUGGCGCGAUACCGCAAACGUCCUCAACCUCCAAUGCAUCCCACCACAUGAUGAUGCCUGAAGAGCCUUGGUUUUUUG here?
Answer: -2.55

Question: Which “polymerase ribozyme fitness (log ratio)” value does the source give for GACCAAUCUGCCCUCAGAGCUCGAGAACAUCUUCGGAUGCAGAGGAGGCAGGCUUCGCUGGCGCGAUAGCGCCAACGUCCUCAACCUCCAAUGCAUCCCACCACAUGAUGACGUCUGAAGAGCCUUGGUUUUUUG here?
Answer: -1.68

Question: For GACCAAUCUGCACUAAGAGCUCGAGAACAUCUUCGGAUGCAGGGGAGGCUGGCUUCGGUGUCGCGAUAGCGCCAACGUCCUCAACCUCCAAUGCAUCCCACCACAUGAUGAUGCCUGAAGAGCCUUGGUUUUUUG, which “polymerase ribozyme fitness (log ratio)” value is on record?
Answer: -6.06

Question: Which “polymerase ribozyme fitness (log ratio)” value does the source give for GACCAAUCUUCCCUCAGAGCUCGAGAACAUCUUCGGAUGCAGAGGAGGCAGGCUUCGGUGGCGCGAUAGCGCCAACGUCCUCAACCUCCAGUGCAUCCCAUCACAUGAUGAUGCCUGAAGAGCCUUGGUUUUUUG here?
Answer: -0.603

Question: Which “polymerase ribozyme fitness (log ratio)” value does the source give for GACCAAUCUGCCCUCAGAGCUCGAGAACAUCUUCGGAUGCAGAGGAGGCAGGCUUCGGUGGGGCGAUAGCGCCAACGUCCUCAACCCCCAAUGCAUCCCACCACAUGAUGGUGCCUGAAGAGCCUUGGUUUUUUG here?
Answer: -3.32

Question: Which “polymerase ribozyme fitness (log ratio)” value does the source give for GACCAAUGUGCCCUCAGCGCUCGAGAACAUCUUCGGAUCCAGAGGAGGCAGGCUUCGGUGGCGCGAUAGCGCCAACGUCCUCAACCUCCAAUGCAUCCCACCACAUGAUGAUGCCUGAAGAGCCUUGGUUUUGUG here?
Answer: -2.2

Question: Which “polymerase ribozyme fitness (log ratio)” value does the source give for GACCAAUCUGCCCUCAGAGCGCGAGAACAUCUUCGGAUGCAGAGUAGGCAGGCUUCGGUGGCGCGAUAGCGCCAACGUCCUCAACCUCCAAGGCAUCCCACCACAUGAUGAUGCCUGAAGAGCCUUGGUUUUUUG here?
Answer: -5.73

Question: For GACCAAUCUGCCCUCAGAGCUCGAGAACAUCUUCGGAUGCAGAGGAGGCAGGCAUCGGUGGCGUGAUAGCGCCAACGUCCUCAACCUCCAAUGCAUCCCACCACUUGAUGAUGCCUGAAGAGCCUUGGUUUUUUG, which “polymerase ribozyme fitness (log ratio)” value is on record?
Answer: -2.69

Question: With GACCAAUCUGCCCUCAGAGCUCGAGAACAUCUUCAGAUGCAGAGGAGGCAGGCUUCGGUGGCGCGAUAGCGGCAACGUCCUCAACCUCCAAUGCAUCCCACCACCUGAGGAUGCCGGAAGGGCCUUGGUUUUUUG as the variant, how does the “polymerase ribozyme fitness (log ratio)” value read?
Answer: -6.34

Question: With GACUAAUCUGGCCUCAGAGCUCGAGAACAUCUUCGGAUGCAGAGGAGGUAAGCUUCGGUGGCGCGAUAGCGCCAACGUCUUCAACCUCCAAUGGAUCCCACCACAUGAUGAUGCCUGAAGAGCCUUGGUUUUUUG as the variant, how does the “polymerase ribozyme fitness (log ratio)” value read?
Answer: -2.25

Question: For GACCAAUCUGCCCUCAGAGCUCGAGAACAUCUUCGGAUGUAGAGGAGGCAGGUUUCGGUGGCGCGAUAGCGCCAACGUCCUCAACCUCCAAUGCAUCCCACCACAUGAUGAUGCCUGAAGAGCCUUGGUUUUUUG, which “polymerase ribozyme fitness (log ratio)” value is on record?
Answer: -0.572

Question: Which “polymerase ribozyme fitness (log ratio)” value does the source give for GACCAAUCUGCUCUCAGAGCUCGAGAACAUCUUCGGAUGCAGAGGAGGCAGGCUUCGGUGGUGCGAUAGCGCCAACGUCGUCAACCUCCAAUGCAUCCCACCACAUGAGGAUGACUGAAGAGCCUUGGUUUUUUG here?
Answer: -6.17

Question: Which “polymerase ribozyme fitness (log ratio)” value does the source give for GACCAAUCUGCCCUCAGAGCUCGAGAACUUCUUCGGAUGCAGAGGAGGCAGGCUUCGGUGGCGCGAUAGUGCCAACGUCCUCAACCUCCAAUGCAUCCCACCACAUGAUGAUGCCUGAAGAGCCUUGGUUUUUUG here?
Answer: -2.15

Question: With GACCAAUCUGCCCUCAGAGCUCGAGAACAUCUUCGGAUGCAGAGGAGGCAGGCUUCGGUGGCGCGAUAGCGCCAAUGUCCUCAACCUCCAAUGCAUUCCACCACAUGAUGAUGCCUGAAGAGCCUUGGUUUUUUG as the variant, how does the “polymerase ribozyme fitness (log ratio)” value read?
Answer: -0.795

Question: With GACCAAUCUGCACUCAGAGCUCGAGAACAUCUUCGGAUGCAGAGGAGGCAGGCUUCGGUGGCCCGAUAGCGCCAACGUCCUCAACCUCCAAUGCAUCCCACCACAUGAUGUUGCCUGAAGAGCCUUGGUUUUUUG as the variant, how does the “polymerase ribozyme fitness (log ratio)” value read?
Answer: -4.83

Question: With GACCAAUCUGCCCUCAGAGCUCAAGAACAUCUUCGGAUGCAGAGGAGGCAGGCUUCGGUGGCGCGAUAGCGCCAACGUCCUGAACCUCCAAUGCAUCCCACCACAUGAUGAUGCCUGAAGAGCCUUGGUUUUUUG as the variant, how does the “polymerase ribozyme fitness (log ratio)” value read?
Answer: -5.43

Question: For GACCACUCUGCCCUUAGAGCUCGAGAACAUCUUAGGAUCCAGAGGAGGCAGGCUUCGGUGGCGCGAUAGCGCCAACGUCCUCAACCUCCAAUGCAUCCCACCACAUGAUGAUGCCUGAAGAGCCUUGGUUUUUUG, which “polymerase ribozyme fitness (log ratio)” value is on record?
Answer: -5.02

Question: With GACCAAUGUGCCCUCAGAGCUCGAGAACAUCUUCGGAUGCAGAGGAGGCAGGCUUCGGUGGCGCGAUAGCGCCAACGUCCUCAACCUCCAAUGCAUCCCACCACAUGAUGAUGCCUGAAGAGCGUUGGUUUUUUG as the variant, how does the “polymerase ribozyme fitness (log ratio)” value read?
Answer: 1.92

Question: With GACCAAUCUGCCCUCAGAUCUCGAGAACAUCUUCGGAUGCAGAGGAGGCAGGCUUCGGUGGCGCGAUAGCGCCGACGUCCUCAACCUCCAAUGCAUCCCACCACAUGAUGAUGCCUGAAGAGCCUUGGUUUUUUG as the variant, how does the “polymerase ribozyme fitness (log ratio)” value read?
Answer: -3.02
